Test results reported in article PMC2722939.

Test system: O=P(O)(O)O[C@@H]1O[C@H](CO)[C@@H](O)[C@H](O)[C@H]1O
Test: purified protein
Conditions: 5 μM βG1,6bisP, 2 mM MgCl2, 50 mM K+HEPES pH 7.0, 25 °C

Row | Substance | Km [µM] | kcat [s⁻¹] | kcat/Km [M⁻¹ s⁻¹]
1 | L. lactis β-PGM (wild type) (Lactococcus lactis subsp. lactis Il1403; H20A) | 41 ± 3 | 0.026 | 600
2 | L. lactis β-PGM (wild type) (Lactococcus lactis subsp. lactis Il1403; H20N) | 170 ± 10 | 0.62 | 4000
3 | L. lactis β-PGM (wild type) (Lactococcus lactis subsp. lactis Il1403; H20Q) | 45 ± 1 | 21.9 | 500000
4 | L. lactis β-PGM (wild type) (Lactococcus lactis subsp. lactis Il1403; T16P) | 4.8 ± 0.3 | 0.026 | 5000
5 | L. lactis β-PGM (wild type) (Lactococcus lactis subsp. lactis Il1403; K76A) | 66 ± 1 | 1.56 | 20000
6 | L. lactis β-PGM (wild type) (Lactococcus lactis subsp. lactis Il1403) | 31 ± 2 | 175 | 6e+06
